Legend:
[1] = molecular target: T1, human αvβ6 on 293F:huβ6 cells (human, UniProt P06756 31-1048; P18564 22-788); assay: saturation binding on 293F cells; AF647-labeled
T1 chain 1: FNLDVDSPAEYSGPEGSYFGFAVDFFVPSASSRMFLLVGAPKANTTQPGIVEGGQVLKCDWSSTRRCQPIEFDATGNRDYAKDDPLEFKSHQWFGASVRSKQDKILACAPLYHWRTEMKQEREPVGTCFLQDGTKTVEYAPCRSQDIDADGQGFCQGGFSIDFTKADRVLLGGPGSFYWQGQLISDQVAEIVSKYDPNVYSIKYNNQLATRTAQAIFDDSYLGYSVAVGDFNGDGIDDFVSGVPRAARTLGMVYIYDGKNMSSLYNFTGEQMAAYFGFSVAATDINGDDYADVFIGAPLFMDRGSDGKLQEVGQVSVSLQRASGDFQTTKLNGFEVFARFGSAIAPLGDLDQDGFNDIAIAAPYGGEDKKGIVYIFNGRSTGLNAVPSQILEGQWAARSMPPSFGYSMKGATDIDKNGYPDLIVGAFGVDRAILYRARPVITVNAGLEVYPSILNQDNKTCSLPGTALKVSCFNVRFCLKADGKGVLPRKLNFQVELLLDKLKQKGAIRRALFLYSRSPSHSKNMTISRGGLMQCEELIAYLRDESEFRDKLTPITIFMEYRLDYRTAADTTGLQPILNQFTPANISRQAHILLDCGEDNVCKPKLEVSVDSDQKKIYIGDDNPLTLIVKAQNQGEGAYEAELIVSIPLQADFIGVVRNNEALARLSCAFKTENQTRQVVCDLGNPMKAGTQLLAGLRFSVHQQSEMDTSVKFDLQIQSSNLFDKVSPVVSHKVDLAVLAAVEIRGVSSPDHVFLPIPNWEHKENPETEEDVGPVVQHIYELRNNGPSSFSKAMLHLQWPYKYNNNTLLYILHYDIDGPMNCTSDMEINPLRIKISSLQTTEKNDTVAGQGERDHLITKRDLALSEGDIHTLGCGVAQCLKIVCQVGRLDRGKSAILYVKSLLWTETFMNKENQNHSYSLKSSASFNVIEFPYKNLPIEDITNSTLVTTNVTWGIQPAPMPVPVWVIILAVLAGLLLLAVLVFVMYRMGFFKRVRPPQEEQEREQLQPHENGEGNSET
T1 chain 2: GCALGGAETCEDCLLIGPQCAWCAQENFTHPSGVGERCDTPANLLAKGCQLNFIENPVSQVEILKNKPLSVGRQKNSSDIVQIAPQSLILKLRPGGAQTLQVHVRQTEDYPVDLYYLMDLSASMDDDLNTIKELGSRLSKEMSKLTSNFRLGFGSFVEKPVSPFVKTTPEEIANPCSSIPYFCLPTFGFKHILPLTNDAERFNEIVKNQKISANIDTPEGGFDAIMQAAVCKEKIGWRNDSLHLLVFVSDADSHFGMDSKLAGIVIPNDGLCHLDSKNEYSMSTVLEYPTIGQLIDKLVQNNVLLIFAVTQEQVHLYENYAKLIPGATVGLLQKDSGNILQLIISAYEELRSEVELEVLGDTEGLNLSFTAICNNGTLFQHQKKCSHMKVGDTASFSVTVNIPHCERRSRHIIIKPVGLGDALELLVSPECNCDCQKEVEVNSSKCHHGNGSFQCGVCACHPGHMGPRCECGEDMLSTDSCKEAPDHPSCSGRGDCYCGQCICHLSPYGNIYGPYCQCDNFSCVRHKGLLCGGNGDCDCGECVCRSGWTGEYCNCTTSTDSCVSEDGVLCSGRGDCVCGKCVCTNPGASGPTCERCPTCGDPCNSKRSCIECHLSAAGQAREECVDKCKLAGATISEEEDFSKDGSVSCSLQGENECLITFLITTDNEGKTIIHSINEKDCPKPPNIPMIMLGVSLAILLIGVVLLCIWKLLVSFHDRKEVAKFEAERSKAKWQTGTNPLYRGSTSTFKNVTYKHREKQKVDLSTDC

[2] = molecular target: T2, cyno αvβ6 on 293F:cynoβ6 cells (human;Macaca fascicularis, UniProt P06756 31-1048; A0A2K5TZ36 22-787); assay: saturation binding on 293F cells; AF647-labeled
T2 chain 1: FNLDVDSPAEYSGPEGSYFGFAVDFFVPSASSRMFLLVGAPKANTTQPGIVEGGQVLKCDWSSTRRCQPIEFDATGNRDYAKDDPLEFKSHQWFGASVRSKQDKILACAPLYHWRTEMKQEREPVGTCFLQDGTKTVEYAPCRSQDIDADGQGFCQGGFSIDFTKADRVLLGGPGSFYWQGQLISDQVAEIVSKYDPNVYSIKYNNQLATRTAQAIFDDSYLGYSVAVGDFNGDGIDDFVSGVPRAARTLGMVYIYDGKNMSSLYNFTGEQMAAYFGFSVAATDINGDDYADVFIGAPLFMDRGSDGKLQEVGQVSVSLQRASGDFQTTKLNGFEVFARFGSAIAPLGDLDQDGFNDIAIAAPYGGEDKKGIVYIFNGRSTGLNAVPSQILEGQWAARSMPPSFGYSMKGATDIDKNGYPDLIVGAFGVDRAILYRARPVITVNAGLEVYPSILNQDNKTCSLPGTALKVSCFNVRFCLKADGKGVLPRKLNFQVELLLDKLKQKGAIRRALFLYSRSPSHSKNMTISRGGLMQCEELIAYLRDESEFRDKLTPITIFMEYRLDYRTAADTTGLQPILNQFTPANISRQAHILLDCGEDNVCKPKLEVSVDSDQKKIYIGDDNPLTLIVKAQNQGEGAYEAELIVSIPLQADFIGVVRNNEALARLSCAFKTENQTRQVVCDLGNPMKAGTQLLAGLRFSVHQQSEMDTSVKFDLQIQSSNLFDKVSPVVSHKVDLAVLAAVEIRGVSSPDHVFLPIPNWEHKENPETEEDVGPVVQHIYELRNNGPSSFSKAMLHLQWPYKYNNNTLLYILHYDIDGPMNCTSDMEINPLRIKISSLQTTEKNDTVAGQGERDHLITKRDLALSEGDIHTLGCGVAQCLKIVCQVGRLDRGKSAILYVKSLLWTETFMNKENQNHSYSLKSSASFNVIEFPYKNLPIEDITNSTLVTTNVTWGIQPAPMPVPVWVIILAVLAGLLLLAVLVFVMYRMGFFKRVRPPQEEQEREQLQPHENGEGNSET
T2 chain 2: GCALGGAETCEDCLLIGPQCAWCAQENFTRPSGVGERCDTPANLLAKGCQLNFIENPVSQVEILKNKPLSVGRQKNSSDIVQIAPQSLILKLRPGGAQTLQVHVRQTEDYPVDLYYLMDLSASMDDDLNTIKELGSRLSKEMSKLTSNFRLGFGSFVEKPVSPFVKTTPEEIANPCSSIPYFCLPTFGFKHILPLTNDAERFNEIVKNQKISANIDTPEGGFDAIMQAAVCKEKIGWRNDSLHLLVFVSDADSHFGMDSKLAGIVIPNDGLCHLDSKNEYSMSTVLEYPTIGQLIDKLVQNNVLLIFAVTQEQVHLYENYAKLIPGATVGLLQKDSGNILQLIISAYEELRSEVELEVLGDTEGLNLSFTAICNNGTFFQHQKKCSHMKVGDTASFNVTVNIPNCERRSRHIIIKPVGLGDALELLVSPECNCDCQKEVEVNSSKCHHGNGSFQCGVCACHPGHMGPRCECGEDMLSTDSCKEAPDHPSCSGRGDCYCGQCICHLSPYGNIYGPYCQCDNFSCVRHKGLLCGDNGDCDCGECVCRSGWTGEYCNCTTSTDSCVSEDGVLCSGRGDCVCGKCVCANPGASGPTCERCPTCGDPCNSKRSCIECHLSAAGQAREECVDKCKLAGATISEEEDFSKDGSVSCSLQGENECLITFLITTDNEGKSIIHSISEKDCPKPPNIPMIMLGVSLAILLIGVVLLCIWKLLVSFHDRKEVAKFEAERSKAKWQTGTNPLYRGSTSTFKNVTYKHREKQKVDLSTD

EC50 [1]: 0.3 nM | EC50 [2]: 0.2 nM
B1: h2A2 HCLG humanized antibody (antibody, human IgG1, kappa, V domains shown)
VH: QFQLVQSGAEVKKPGASVKVSCKASGYSFTDYNVNWVRQAPGQGLEWIGVINPKYGTTRYNQKFKGRATLTVDKSTSTAYMELSSLRSEDTAVYYCTRGLNAWDYWGQGTLVTVSS
VL: DIQMTQSPSSLSASVGDRVTITCGASENIYGALNWYQQKPGKAPKLLIYGATNLEDGVPSRFSGSGSGRDYTFTISSLQPEDIATYYCQNVLTTPYTFGQGTKLEIKR
notes: Labelled with AlexaFluor-647 in the saturation assay; also called humanized 2A2 HCLG

— patent US20250242041A1 (Seagen, published 2025)
